Positions count from the first letter of the chain named.
B1: anti-GITR mouse monoclonal antibody 45F1F3 (antibody, V domains shown)
VH: DVQLQESGPGLVKPSQSLSLTCTVTGYSITIDYAWNWIRQFPGNKLEWMGYISNSGYTSYNPSLKSRISFTRDTSKNQFFLQLNSVTPEDSATYYCTRSGHYDLFDYWGQGTTLTVSS
VL: DVVMTQAPLTLSVTIGQPASISCKSSQSLFDRDGKTYLSWLLERPGQSPKRLIYLVSNLDSGVPDRFTGSGSGTDFTLKISRVEAEDLGVYYCWQGTHFPYTFGGGTKVEMK
B2: anti-GITR mouse monoclonal antibody 134D7B3 (antibody, V domains shown)
VH: QVQLQQSGAELVRPGTSVKVSCKASGYAFNNYVIEWVKQRPGQGLEWIGVIYPGNGGSDYNEKFKVKAKLTADKSSSTAYMQLSSLTSDDSAVYFCARFYYFGSSYAMDYWGQGTSVTVSS
VL: DIQMTQTTSSLSASLGDRVTISCRASQDISNYLNWYQQKPDGTIKLLIYYTSRLHSGVPSRFSGSGSGTDYSLTITNLEQEDIATYFCQQGNTLPFTFGSGTKLEIK
B3: anti-GITR mouse monoclonal antibody 163H12G7 (antibody, V domains shown)
VH: QVQLQQSGAELASPGASVKMSCKASGYTFSTYTVHWVKQRPGQGLEWIGYINPASGYTNYNQKFKDRATLTADRSSTTAYMQLSGLTSEDSAVFYCARWSYWYFDVWGTGTTVTVSS
VL: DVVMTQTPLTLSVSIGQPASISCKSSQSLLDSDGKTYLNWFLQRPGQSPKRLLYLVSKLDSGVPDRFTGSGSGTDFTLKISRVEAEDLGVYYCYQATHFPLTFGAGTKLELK
B4: anti-GITR mouse monoclonal antibody 223F12C4 (antibody, V domains shown)
VH: QVQLQQSGAELVKPGASVKVSCKASGYSFTSYWIHWVKQRPGQGLEWIGRIHPSDGDIDHNEKFKGKATLTVDKSSSTAYMQLTSLTSEDSAVYYCLCYIMDYWGQGTSVTVSS
VL: DIQMNQSPSSLSASLGDTIAITCHASQNINVWLSWYQQKPGNIPKLLIYKAAKLQTGVPSRFSGSGSGTGFTLTISSLQPEDIATYYCHQGQDYPLTFGAGTKLELK
B5: anti-GITR mouse monoclonal antibody 225H7D12 (antibody, V domains shown)
VH: QVQLQQSGAEVMKPGASVKLSCKTTGYRFTGYWIEWVKQRPGHGLEWIGEILPGSGVSNNNEKFRDKATFTADTSSNTAYIQLSSLTTDDSAIYYCARKASYYTMDYWGQGTSVTVSS
VL: QIVLTQSPAIMSASLGERVTMTCTASSSVSSFYFHWYQQKPGSSPKLWIYSISNLASGVPTRFSGSGSGTSYSLTISSMEAEDAATYYCHQYHRSPRTFGGGTKLEIK
B6: chimeric antibody 225H7D12 (human IgG1) (antibody, V domains shown)
VH: B5 VH
VL: QIVLTQSPAIMSASLGERVTMTCTASSSVSSFYFHWYQQKPGSSPKLWIYSISNLASGVPTRFSGSGSGTSYSLTISSMEAEDAATYYCHQYHRSPRTFGGGTKLEIKR
B7: chimeric antibody 270C5C10(Ha-L) (human IgG1) (antibody, V domains shown)
VH: EVQLQQSGPEVVKPGASVKISCKASGYTFTDNYMNWAKQSQGKSLEWIGDINPNNGGSRYKEKFKDKATLTVDKSSRTAYMELRSLTSEDSAVYYCANPGSYGFAYWGQGTLVTVSA
VL: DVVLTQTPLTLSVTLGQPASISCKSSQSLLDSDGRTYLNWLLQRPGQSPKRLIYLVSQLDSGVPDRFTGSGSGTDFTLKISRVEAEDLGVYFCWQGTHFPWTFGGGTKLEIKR
B8: chimeric antibody 45F1F3 (human IgG1) (antibody, V domains shown)
VH: B1 VH
VL: DVVMTQAPLTLSVTIGQPASISCKSSQSLFDRDGKTYLSWLLERPGQSPKRLIYLVSNLDSGVPDRFTGSGSGTDFTLKISRVEAEDLGVYYCWQGTHFPYTFGGGTKVEMKR
B9: humanized antibody 45F1F3 VH1.3 + VL1.1 (antibody, V domains shown)
VH: QVQLQESGPGLVKPSQTLSLTCTVTGYSITIDYAWNWIRQPPGKGLEWMGYISNSGYTSYNPSLKSRVTISRDTSKNQFFLKLSSVTAADTAVYYCTRSGHYDLFDYWGQGTTVTVSS
VL: B1 VL with A7S, T10S, S12P, I15L, E43Q, K50R, T68S, L88V, M111I
B10: humanized antibody 270C5C10 VH1.2 + VL1 (antibody, V domains shown)
VH: QVQLVQSGAEVKKPGASVKVSCKASGYTFTDNYMNWVRQAPGQSLEWIGDINPNNGGSRYKEKFKDRATLTVDTSIRTAYMELSRLRSDDTAVYYCANPGSYGFAYWGQGTLVTVSS
VL: DVVMTQSPLSLPVTLGQPASISCKSSQSLLDSDGRTYLNWFQQRPGQSPRRLIYLVSQLDSGVPDRFSGSGSGTDFTLKISRVEAEDVGVYYCWQGTHFPWTFGGGTKLEIK
B11: humanized antibody 225H7D12 VH1.1 + VL1.2 (antibody, V domains shown)
VH: QVQLVQSGAEVKKPGASVKVSCKTTGYRFTGYWIEWVRQAPGQGLEWIGEILPGSGVSNNNEKFRDRATMTADTSISTAYMELSRLRSDDTAVYYCARKASYYTMDYWGQGTLVTVSS
VL: DIQMTQSPSSLSASVGDRVTITCTASSSVSSFYFHWYQQKPGKAPKLWIYSISNLASGVPSRFSGSGSGTSYTLTISSLQPEDFATYYCHQYHRSPRTFGGGTKLEIK
B12: humanized antibody 45F1F3 VH1.4 + VL1.1 (antibody, V domains shown)
VH: B9 VH with Q1D, V68I, I70F
VL: B1 VL with A7S, T10S, S12P, I15L, E43Q, K50R, T68S, L88V, M111I
B13: humanized antibody 270C5C10 VH1.4 + VL1 (antibody, V domains shown)
VH: B10 VH with V37A, A40S
VL: B10 VL
B14: humanized antibody 225H7D12 VH1.3 + VL1.2 (antibody, V domains shown)
VH: B11 VH with T24A, T25S, R38K, S77N
VL: B11 VL
B15: humanized antibody 225H7D12 VH1.4 + VL1.2 (antibody, V domains shown)
VH: B11 VH with R38K, M70F, S77N
VL: B11 VL

target: T1, GITR expressed on the effector cell line of the reporter gene assay; test: cell-based or functional assay

Point of comparison: B4, “EC50, GITR functional reporter gene assay (luciferase)” value 0.151 µg/mL. Against it:
- B1 — 10-fold lower, 0.0145 µg/mL
- B2 — 7-fold higher, 1.05 µg/mL
- B3 — 11-fold lower, 0.0137 µg/mL
- B5 — 1.9-fold lower, 0.0796 µg/mL

target: T1, GITR expressed on the effector cell …; test: cell-based or functional assay; remark: another data set of the same source

Point of comparison: B7, “Bottom, GITR functional reporter gene assay” value 18000. Against it:
- B6 — lower, 16800
- B8 — lower, 16300

Point of comparison: B7, “EC50, GITR functional reporter gene assay” value 0.386 µg/mL. Against it:
- B6 — 4.8-fold lower, 0.0796 µg/mL
- B8 — 27-fold lower, 0.0145 µg/mL

Point of comparison: B8, “LogEC50, GITR functional reporter gene assay” value -1.84. Against it:
- B6 — higher, -1.1
- B7 — higher, -1.41

Point of comparison: B8, “Span, GITR functional reporter gene assay” value 32000. Against it:
- B6 — higher, 37000
- B7 — lower, 31500

Point of comparison: B6, “Top, GITR functional reporter gene assay” value 53800. Against it:
- B7 — lower, 49500
- B8 — lower, 48300

target: T1, GITR expressed on the effector cell …; test: cell-based or functional assay; remark: another data set of the same source

Point of comparison: B10, “EC50, GITR functional reporter gene assay (GenScript, NFkB luciferase)” value 0.0745 µg/mL. Against it:
- B6 — 17-fold higher, 1.26 µg/mL
- B7 — 2-fold lower, ~0.0374 µg/mL
- B8 — 15-fold higher, ~1.09 µg/mL
- B9 — 14-fold higher, 1.08 µg/mL
- B11 — 16-fold higher, 1.17 µg/mL
- B12 — 15-fold higher, 1.09 µg/mL
- B13 — 2.1-fold lower, ~0.0355 µg/mL
- B14 — 16-fold higher, 1.18 µg/mL
- B15 — 20-fold higher, 1.46 µg/mL

Reference: patent US20230064703A1 (NANJING GENSCRIPT BIOTECH, published 2023)
